Test results: patent US20200347130A1 (JIANGSU HENGRUI MEDICINE, published 2020)
Numbering of substitutions follows the chain as printed.

T1: Biotinylated CD96 antigen (human, UniProt P40200-2 22-503, limits assumed, biotinylated)
T1 sequence (looked up): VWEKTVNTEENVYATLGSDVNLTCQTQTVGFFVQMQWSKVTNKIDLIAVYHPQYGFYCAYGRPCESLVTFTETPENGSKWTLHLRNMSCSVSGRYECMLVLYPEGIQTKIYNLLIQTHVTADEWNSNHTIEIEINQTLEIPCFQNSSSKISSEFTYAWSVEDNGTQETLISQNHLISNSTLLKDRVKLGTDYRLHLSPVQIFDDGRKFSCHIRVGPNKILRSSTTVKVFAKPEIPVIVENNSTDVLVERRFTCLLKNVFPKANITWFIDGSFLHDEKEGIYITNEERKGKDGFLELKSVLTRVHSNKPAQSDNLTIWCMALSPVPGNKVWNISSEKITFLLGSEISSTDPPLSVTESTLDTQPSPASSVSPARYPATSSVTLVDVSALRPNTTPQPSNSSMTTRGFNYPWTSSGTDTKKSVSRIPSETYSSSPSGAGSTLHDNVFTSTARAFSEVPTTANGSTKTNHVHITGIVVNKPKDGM

T2: CD96 extracellular region with His tag (CD96-His) (human, UniProt P40200 22-519)
T2 construct: also called CD96-ECD-His; Bio-CD96-His (biotin-labelled form)
T2 sequence: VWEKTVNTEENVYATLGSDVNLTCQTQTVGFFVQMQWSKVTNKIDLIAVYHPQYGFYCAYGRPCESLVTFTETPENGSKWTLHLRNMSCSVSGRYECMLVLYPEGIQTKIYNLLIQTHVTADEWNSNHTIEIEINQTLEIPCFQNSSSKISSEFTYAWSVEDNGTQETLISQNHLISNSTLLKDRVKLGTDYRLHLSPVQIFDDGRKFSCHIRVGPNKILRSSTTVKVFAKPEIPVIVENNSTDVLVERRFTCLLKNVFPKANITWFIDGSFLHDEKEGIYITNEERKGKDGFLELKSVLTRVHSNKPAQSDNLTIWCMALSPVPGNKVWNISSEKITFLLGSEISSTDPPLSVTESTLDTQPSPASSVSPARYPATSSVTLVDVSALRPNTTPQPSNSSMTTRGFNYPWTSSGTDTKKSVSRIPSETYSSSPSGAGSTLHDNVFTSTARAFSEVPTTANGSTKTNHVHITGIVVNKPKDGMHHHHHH

B1: h1721-003 (antibody, V domains shown)
VH: EVTLKESGPVLVKPTETLTLTCTVSGFSLSSYGVNWIRQPPGKALEWLGVIWGDGSTNYHSALISRLTISKDTSKSQVVLTLTNMDPVDTATYYCAKNYFYGSRYGYAMDSWGQGTTVTVSS
VL: DIQMTQSPSSLSASVGDRVTITCRASENIYSSLAWYQQKPGKAPKLLIYNAKTLIEGVPSRFSGSGSGTDFTLTISSLQPEDFATYYCQHHYGTPYTFGGGTKVEIK
notes: Only variable regions are tied to this name; also called M721-003
B2: h1718-012 (antibody, V domains shown)
VH: EVQLVQSGAEVKKPGASVKVSCKASGYTITDYNMNWVRQAPGQRLEWIGVINPSYGITDYNQNFKDRVTITVDTSASTAYMELSSLRSEDTAVYYCAIQLRLPGYFDVWGQGTTVTVSS
VL: DIQMTQSPSSLSASVGDRVTITCKASQDINQYLNWFQQKPGKAPKTLIYRANRLVDGVPSRFSGSGSGQDYTLTISSLQPEDFATYYCLKYDEFPYTFGGGTKVEIK
notes: Only variable regions are tied to this name
B3: h1719-010 (antibody, V domains shown)
VH: EVTLKESGPVLVKPTETLTLTCTVSGFSLSSYGVSWVRQPPGKGLEWLGVIWGDGNTNYHSVLISRLTISKDTSKSQVVLTLTNMDPVDTATYYCAKQNYYGSRYGYPIDYWGQGTTVTVSS
VL: DIQMTQSPSSVSASVGDRVTITCKATQDVGTAVAWYQQKPGKAPKLLIYWASTRHTGVPSRFSGSGSGTDFTLTISSLQPEDFATYYCQQYGSSVLTFGGGTKVEIK
notes: as for B2
B4: ch1720 (antibody, human IgG4 S228P, kappa, V domains shown)
VH: EFQLQQSGPELVKPGASVKISCKASAYSLTDYNMNWVKQSNGKSLEWIGVINPSYGISSYNQKFKGKATLTVDQSSSTAYMHLNSLTSEDSAVYYCARQLRLPGYFDVWGTGTTVTVSS
VL: DIKMTQSPSSKNASLGERVTITCKASQDINSYLNWFQQKPGKSPKTLIYRASRLVDGVPSRFSGSGSGQDYSLTISSLEYEDMGIYYCLKYDEFPYTFGGGTKLEIKR
notes: also called chimeric antibody corresponding to m1720
B5: h1722-010 (antibody, V domains shown)
VH: EVQLVQSGAEVKKPGSSVKVSCKASGGTFSDYWMHWVRQAPGQGLEWIGMLHPNSGTTSFNEKFKIRVTITADKSTSTAYMELSSLRSEDTAVYYCASDYSGPFAYWGQGTLVTVSS
VL: DIQLTQSPSSLSASVGDRVTITCSASSSVNYIHWYQQKPGKAPKRWIFDTSKLASGVPSRFSGSGSGTDYTLTISSLQPEDFATYYCQQWRSNPLTFGQGTKLEIK
notes: Only variable regions are tied to this name; also called M722-010
B6: h1719-014 (antibody, V domains shown)
VH: B3 VH with Q98N, N99Y, I109L
VL: B3 VL with A43S, S60E, Y87F
notes: Only variable regions are tied to this name; also called M719-014
B7: ch1718 (antibody, human IgG4 S228P, kappa, V domains shown)
VH: B4 VH with L29I, S58T, S59D, K63N, G66D, H82Q, R98I, T116I
VL: B4 VL with K11M, N12Y, S31N, S52N, L104V
notes: also called chimeric antibody corresponding to m1718
B8: ch1719 (antibody, human IgG4 S228P, kappa, V domains shown)
VH: QVQLKESGPGLVAPSQSLSITCTVSGFSLISYGVSWVRQPPGKGLEWLGVIWGDGNTNYHSVLISRLSIRKDDSKSQVFLKLNSLQTDDTATYYCAKNNYYGSRYGYPMDYWGQGTSVTVSS
VL: DIVMTQSHKFMSTSVGDRVSITCKATQDVGTAVAWYQQKPGHSPKLLIYWASTRHTGVPERFTGSGSGTDFTLTIDNVQSEDLADYFCQQYGSSVLTFGAGTKVELRR
notes: also called chimeric antibody corresponding to m1719
B9: ch1721 (antibody, human IgG4 S228P, kappa, V domains shown)
VH: B8 VH with S35N, N56S, V62A, R70S, K81N, N99Y, Y100F, P108A, Y111S, T116I
VL: DIQMTQSPASLSAAVGETVTITCRASENIYSSLAWYQQKQGKSPQLLVYNAKTLIETVASRFSGSGSGTQYSLKINSLQPEDFGSFYCQHHYGTPYTFGGGTKLEIKR
notes: also called chimeric antibody corresponding to m1721
B10: ch1722 (antibody, human IgG4 S228P, kappa, V domains shown)
VH: QVQLQQPGAELVKPGTSVKLSCKASGNTFIDYWMHWVKQRPGQGLEWIGMLHPNSGTTSFNEKFKIKTTLTIDKSSSTAYMQLSSLTSEDSAIYYCASDYSGPFAYWGQGTLVTVSA
VL: QIVLTQSPGIMSAFPGEKVTMTCSASSSVNYIHWYQQKSGTSPKRWIFDTSKLASGVPARFSGSGSGTSYSLTISSMEAEDAATYYCQQWRSNPLTFGAGTKLELKR
notes: also called chi722; chimeric antibody corresponding to m1722

biological target: T1, Biotinylated CD96 antigen; assay: competition ELISA: antibody B pre-incubated with biotinylated CD96 antigen, added to a plate coated with antibody A, HRP-streptavidin, OD450; competitor: coated ch1720
Description: (§1) Competitive assays of different antibodies binding to CD96 protein were used to classify binding epitopes of the antibodies. The specific experimental methods are as follows:
(§2) Antibody A was diluted to a concentration of 2 μg/ml with PBS buffer (Shanghai Yuanpei Biotechnology Co., Ltd. Cat No. B320), pH 7.4, added to a 96-well microtiter plate (Corning, Cat No. CLS3590-100EA) at a volume of 50 μl/well, and coated at 4° C. overnight. After discarding the liquid, 250 μl/well of 5% skim milk (BD skim milk, Cat No. 232100) blocking solution diluted with PBS was added, and the plate was incubated at 37° C. for 3 hours. After blocking, the blocking solution was discarded, and the plate was washed 5 times with PBST buffer (pH 7.4 PBS containing 0.05% tween-20) and stored for later use. Antibody B was diluted to 40 μg/ml and 8 μg/ml with 1% BSA, and Biotinylated CD96 antigen was simultaneously diluted to 4 μg/mL. Subsequently, antibody B and antigen were mixed in a 1:1 volume ratio, pre-incubated at 37° C. for 45 minutes, added into the enzyme plate coated with antibody A, thus incubating the plate in an incubator at 37° C. for 1.5 hours. After incubation, the plate was washed for 5 times with PBST, and 50 μl/well of HRP-labeled streptavidin (Sigma, Cat No. 52438) diluted with sample dilution was added, followed by incubating the plate at 37° C. for 1 hour. After washing the plate 5 times with PBST, 50 μl/well of TMB chromogenic substrate (KPL, Cat No. 52-00-03) was added for color development, followed by adding 50 μl/well of 1M H₂SO₄ to stop the reaction. The absorption value was read at 450 nm with a NOVOStar microplate reader, and the OD value was used to determine whether A and B CD96 antibodies compete with each other. Antibodies that compete with each other fall into the same class of antibodies, otherwise belong to different classes of antibodies (see FIG. 3 and Table 18).

IC50 (read off the curve) | Binder
~0.4 nM | B1
~0.5 nM | B2
~0.5 nM | B3

biological target: T1, Biotinylated CD96 antigen; assay: competition ELISA, antibody B premixed with biotinylated CD96; competitor (coated antibody A): h1721-003
Description: as §1, §2

competition (percent) | Binder
98.7% | B4
100% | B1
-8.5% | B5
103% | B2
84.6% | B6

biological target: T2, CD96 extracellular region with His tag …; assay: blocking cell ELISA: antibody premixed with CD96 antigen (0.5 ug/mL), binding to fixed CD155-CHO cells
Description: CD155-CHO cells (constructed by Shanghai Hengrui) were seeded in 96-well culture plates at a density of 9×10⁴/100 μL/well and cultured overnight. After aspirating the supernatant, the plate was washed once with PBS, 100 μl/well of immunostaining fixation solution (Biyuntian, Cat No. P0098) was added and fixed for one hour at room temperature, and the plate was washed three times with PBS. After discarding the liquid, 250 μl/well of 5% skim milk (BD, Cat No. 232100) blocking solution diluted with PBS was added, and the plate was blocked in an incubator at 37° C. for 2.5 hours. After blocking, the blocking solution was discarded, subsequently, the plate was washed 4 times with PBST buffer (pH 7.4 PBS containing 0.05% tween-20). 50 μl/well of antigen-antibody pre-incubation solution (gradient concentrations of the hybridoma antibody to be tested and CD96-Fc at a final concentration of 0.5 μg/mL were premixed at 37° C. for 30 minutes, or gradient concentrations of humanized antibody samples and Bio-CD96-His at a final concentration of 0.5 μg/mL were premixed at 37° C. for 30 minutes) (Biotin-labeled kit, Dongren Chemical, Cat No. LK03) was added, and the plate was incubated in an incubator at 37° C. for 2 hours. After incubation, the reaction solution in the microtiter plate was discarded, the plate was washed 4 times with PBST, and 50 μl/well of HRP-labeled goat anti-human secondary antibody (Jackson Immuno Research, Cat No. 109-035-003) diluted with sample dilution or HRP-labeled streptavidin diluted with sample dilution (Sigma, Cat No. 52438) was added, followed by incubating at 37° C. for 1 hour. After washing the plate 4 times with PBST, 50 μl/well of TMB chromogenic substrate (KPL, Cat No. 52-00-03) was added, the plate was incubated at room temperature for 10-20 minutes, followed by adding 50 μl/well of 1M H₂SO₄ to stop the reaction. The absorption value was read at 450 nm with a NOVOStar microplate reader, and the EC50 value of the effect of CD96 antibody on blocking the binding between the antigens and CD155-CHO cells was calculated (see FIG. 2 and Table 16).

IC50 | Binder
0.149 nM | B4
0.096 nM | B7
0.137 nM | B8
0.214 nM | B9
0.159 nM | B10
